Measured values as given in patent US20220177587A1, “METHODS AND USES OF VARIANT CD80 FUSION PROTEINS AND RELATED CONSTRUCTS” (Alpine Immune Sciences, Inc., priority 2018, published 2022).

B1: A12V/S15F/Y31H/M38L/T41G/M43L/D90N/T130A/P137L/N149D/N152T (protein)
chain: VIHVTKEVKEVVTLFCGHNVSVEELAQTRIHWQKEKKLVLGMLSGDMNIWPEYKNRTIFDITNNLSIVILALRPSDEGTYECVVLKYEKNAFKREHLAEVTLSVKADFPTPSISDFEIPTSNIRRIICSASGGFPELHLSWLENGEELDAITTTVSQDPETELYAVSSKLDFNMTTNHSFMCLIKYGHLRVNQTFNWNTTKQEHFPDN
B2: K89E/T130A (protein)
chain: VIHVTKEVKEVATLSCGHNVSVEELAQTRIYWQKEKKMVLTMMSGDMNIWPEYKNRTIFDITNNLSIVILALRPSDEGTYECVVLKYEEDAFKREHLAEVTLSVKADFPTPSISDFEIPTSNIRRIICSASGGFPEPHLSWLENGEELNAINTTVSQDPETELYAVSSKLDFNMTTNHSFMCLIKYGHLRVNQTFNWNTTKQEHFPDN
modifications: CD80 v19 ECD
B3: V68A/T110A (protein)
chain: VIHVTKEVKEVATLSCGHNVSVEELAQTRIYWQKEKKMVLTMMSGDMNIWPEYKNRTIFDITNNLSIAILALRPSDEGTYECVVLKYEKDAFKREHLAEVTLSVKADFPAPSISDFEIPTSNIRRIICSTSGGFPEPHLSWLENGEELNAINTTVSQDPETELYAVSSKLDFNMTTNHSFMCLIKYGHLRVNQTFNWNTTKQEHFPDN
modifications: CD80 v26 ECD
B4: M38V/T41D/M43I/W50G/D76G/V83A/K89E/I118V/T120S/I126V/T130A (protein)
chain: VIHVTKEVKEVATLSCGHNVSVEELAQTRIYWQKEKKVVLDMISGDMNIGPEYKNRTIFDITNNLSIVILALRPSGEGTYECAVLKYEEDAFKREHLAEVTLSVKADFPTPSISDFEVPSSNIRRVICSASGGFPEPHLSWLENGEELNAINTTVSQDPETELYAVSSKLDFNMTTNHSFMCLIKYGHLRVNQTFNWNTTKQEHFPDN
B5: D60V/A91G/I118V/T120S/T130A/K169E (protein)
chain: VIHVTKEVKEVATLSCGHNVSVEELAQTRIYWQKEKKMVLTMMSGDMNIWPEYKNRTIFVITNNLSIVILALRPSDEGTYECVVLKYEKDGFKREHLAEVTLSVKADFPTPSISDFEVPSSNIRRIICSASGGFPEPHLSWLENGEELNAINTTVSQDPETELYAVSSELDFNMTTNHSFMCLIKYGHLRVNQTFNWNTTKQEHFPDN
modifications: CD80 v137 ECD
B6: K54M/L70Q/A91G/Y164H (protein)
chain: VIHVTKEVKEVATLSCGHNVSVEELAQTRIYWQKEKKMVLTMMSGDMNIWPEYMNRTIFDITNNLSIVIQALRPSDEGTYECVVLKYEKDGFKREHLAEVTLSVKADFPTPSISDFEIPTSNIRRIICSTSGGFPEPHLSWLENGEELNAINTTVSQDPETELHAVSSKLDFNMTTNHSFMCLIKYGDLRVNQTFNWNTTKQEHFPDN
modifications: CD80 v138 ECD
B7: L70Q/A91G/T110A/I118V/T120S/T130A (protein)
chain: VIHVTKEVKEVATLSCGHNVSVEELAQTRIYWQKEKKMVLTMMSGDMNIWPEYKNRTIFDITNNLSIVIQALRPSDEGTYECVVLKYEKDGFKREHLAEVTLSVKADFPAPSISDFEVPSSNIRRIICSASGGFPEPHLSWLENGEELNAINTTVSQDPETELYAVSSKLDFNMTTNHSFMCLIKYGHLRVNQTFNWNTTKQEHFPDN
modifications: CD80 v145 ECD
B8: A91G/L102S (protein)
chain: VIHVTKEVKEVATLSCGHNVSVEELAQTRIYWQKEKKMVLTMMSGDMNIWPEYKNRTIFDITNNLSIVILALRPSDEGTYECVVLKYEKDGFKREHLAEVTSSVKADFPTPSISDFEIPTSNIRRIICSTSGGFPEPHLSWLENGEELNAINTTVSQDPETELYAVSSKLDFNMTTNHSFMCLIKYGHLRVNQTFNWNTTKQEHFPDN
B9: Y31H/T41G/M43L/L70Q/A91G/I118V/T120S//I126V/T130A (protein)
chain: VIHVTKEVKEVATLSCGHNVSVEELAQTRIHWQKEKKMVLGMLSGDMNIWPEYKNRTIFDITNNLSIVIQALRPSDEGTYECVVLKYEKDGFKREHLAEVTLSVKADFPTPSISDFEVPSSNIRRVICSASGGFPEPHLSWLENGEELNAINTTVSQDPETELYAVSSKLDFNMTTNHSFMCLIKYGHLRVNQTFNWNTTKQEHFPDN
B10: R29H/E52G/D90N/I118V/T120S/T130A (protein)
chain: VIHVTKEVKEVATLSCGHNVSVEELAQTHIYWQKEKKMVLTMMSGDMNIWPGYKNRTIFDITNNLSIVILALRPSDEGTYECVVLKYEKNAFKREHLAEVTLSVKADFPTPSISDFEVPSSNIRRIICSASGGFPEPHLSWLENGEELNAINTTVSQDPETELYAVSSKLDFNMTTNHSFMCLIKYGHLRVNQTFNWNTTKQEHFPDN
modifications: CD80 v142 ECD
B11: M38T/L70Q/E77G/A91G/I118V/T120S/T130A/N152T (protein)
chain: VIHVTKEVKEVATLSCGHNVSVEELAQTRIYWQKEKKTVLTMMSGDMNIWPEYKNRTIFDITNNLSIVIQALRPSDGGTYECVVLKYEKDGFKREHLAEVTLSVKADFPTPSISDFEVPSSNIRRIICSASGGFPEPHLSWLENGEELNAITTTVSQDPETELYAVSSKLDFNMTTNHSFMCLIKYGHLRVNQTFNWNTTKQEHFPDN
B12: V22A/L70Q/S121P (protein)
chain: VIHVTKEVKEVATLSCGHNVSAEELAQTRIYWQKEKKMVLTMMSGDMNIWPEYKNRTIFDITNNLSIVIQALRPSDEGTYECVVLKYEKDAFKREHLAEVTLSVKADFPTPSISDFEIPTPNIRRIICSTSGGFPEPHLSWLENGEELNAINTTVSQDPETELYAVSSKLDFNMTTNHSFMCLIKYGHLRVNQTFNWNTTKQEHFPDN
modifications: CD80 v33 ECD
B13: R29H/E52G/L70R/E88G/A91G/T130A (protein)
chain: VIHVTKEVKEVATLSCGHNVSVEELAQTHIYWQKEKKMVLTMMSGDMNIWPGYKNRTIFDITNNLSIVIRALRPSDEGTYECVVLKYGKDGFKREHLAEVTLSVKADFPTPSISDFEIPTSNIRRIICSASGGFPEPHLSWLENGEELNAINTTVSQDPETELYAVSSKLDFNMTTNHSFMCLIKYGHLRVNQTFNWNTTKQEHFPDN
modifications: CD80 v24 ECD
B14: I67T/L70Q/A91G/I118V/T120S (protein)
chain: VIHVTKEVKEVATLSCGHNVSVEELAQTRIYWQKEKKMVLTMMSGDMNIWPEYKNRTIFDITNNLSTVIQALRPSDEGTYECVVLKYEKDGFKREHLAEVTLSVKADFPTPSISDFEVPSSNIRRIICSTSGGFPEPHLSWLENGEELNAINTTVSQDPETELYAVSSKLDFNMTTNHSFMCLIKYGHLRVNQTFHWNTTKQEHFPDN
modifications: CD80 v144 ECD
B15: L65H/D90G/T110A/F116L (protein)
chain: VIHVTKEVKEVATLSCGHNVSVEELAQTRIYWQKEKKMVLTMMSGDMNIWPEYKNRTIFDITNNHSIVILALRPSDEGTYECVVLKYEKGAFKREHLAEVTLSVKADFPAPSISDLEIPTSNIRRIICSTSGGFPEPHLSWLENGEELNAINTTVSQDPETELYAVSSKLDFNMTTNHSFMCLIKYGHLRVNQTFNWNTTKQEHFPDN
modifications: CD80 v141 ECD
B16: A91G (protein)
chain: VIHVTKEVKEVATLSCGHNVSVEELAQTRIYWQKEKKMVLTMMSGDMNIWPEYKNRTIFDITNNLSIVILALRPSDEGTYECVVLKYEKDGFKREHLAEVTLSVKADFPTPSISDFEIPTSNIRRIICSTSGGFPEPHLSWLENGEELNAINTTVSQDPETELYAVSSKLDFNMTTNHSFMCLIKYGHLRVNQTFNWNTTKQEHFPDN
B17: I67F/L70R/E88G/A91G/I118V/T120S/T130A (protein)
chain: VIHVTKEVKEVATLSCGHNVSVEELAQTRIYWQKEKKMVLTMMSGDMNIWPEYKNRTIFDITNNLSFVIRALRPSDEGTYECVVLKYGKDGFKREHLAEVTLSVKADFPTPSISDFEVPSSNIRRIICSASGGFPEPHLSWLENGEELNAINTTVSQDPETELYAVSSKLDFNMTTNHSFMCLIKYGHLRVNQTFNWNTTKQEHFPDN
modifications: CD80 v148 ECD

Key:
allogeneic CD4+ T cells = assay: Mixed Lymphocyte Reaction (MLR), IFN-gamma; format: cell-based, human; settings: Table E32; variant ECD-Fc in MLR assay; culture supernatant
Description: Soluble rCD80.Fc bioactivity was tested in a human Mixed Lymphocyte Reaction (MLR). Human primary dendritic cells (DC) were generated by culturing monocytes isolated from PBMC (BenTech Bio, USA) in vitro for 7 days with 500U/ml rIL-4 (R&D Systems, USA) and 250 U/ml rGM-CSF (R&D Systems, USA) in Ex-Vivo 15 media (Lonza, Switzerland). 10,000 matured DC and 100,000 purified allogeneic CD4+ T cells (BenTech Bio, USA) were co-cultured with variant CD80 Fc fusion proteins and controls in 96 well round bottom plates in 200 μl final volume of Ex-Vivo 15 media. On day 5, IFN-gamma secretion in culture supernatants was analyzed using the Human IFN-gamma Duoset ELISA kit (R&D Systems, USA). Optical density was measured by VMax ELISA Microplate Reader (Molecular Devices, USA) and quantitated against titrated rIFN-gamma standard included in the IFN-gamma Duo-set kit (R&D Systems, USA).

human pan T cells = assay: Anti-CD3 coimmobilization assay, IFN-gamma; format: cell-based; settings: Table E32; variant ECD-Fc coimmobilized with anti-CD3; culture supernatant
How it was run: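 IFN-gamma in 3-day culture supernatants, quantified by ELISA, reflects costimulation. Human pan T cells or BC3 clone (100,000/well, Ex-Vivo 15) were placed on wells pre-adsorbed overnight with rCD80.Fc variants (1–80 nM) together with anti-CD3 OKT3 (1 nM or 4 nM), unbound protein removed.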

Row | Molecule | MLR IFN-gamma levels (allogeneic CD4+ T cells) | Coimmobilization with anti CD3 IFN-gamma (human pan T cells)
1 | B1 | 711 pg/mL | 104 pg/mL
2 | B2 | 761 pg/mL | 204 pg/mL
3 | B3 | 861 pg/mL | 163 pg/mL
4 | B4 | 671 pg/mL | 82 pg/mL
5 | B5 | 744 pg/mL | 120 pg/mL
6 | B6 | 685 pg/mL | 152 pg/mL
7 | B7 | 656 pg/mL | 77 pg/mL
8 | B8 | 698 pg/mL | 75 pg/mL
9 | B9 | 782 pg/mL | 288 pg/mL
10 | B10 | 800 pg/mL | 124 pg/mL
11 | B11 | 796 pg/mL | 119 pg/mL
12 | B12 | 976 pg/mL | 105 pg/mL
13 | B13 | 740 pg/mL | 200 pg/mL
14 | B14 | 794 pg/mL | 1751 pg/mL
15 | B15 | 758 pg/mL | 129 pg/mL
16 | B16 | 877 pg/mL | 220 pg/mL
17 | B17 | 1003 pg/mL | 62 pg/mL
